Measurements taken from PMC5102827 (Oncogene, 2016).

Tests used:
[1] = molecular target: recombinant NOTCH3 protein (Homo sapiens, UniProt Q9UM47); assay: SPR
[2] = molecular target: NOTCH3 on the surface of cells expressing NOTCH3 (Homo sapiens, UniProt Q9UM47); assay: flow cytometry on cells

- Kd [1]: 0.6 nM
- EC50 [2]: 0.14 nM
B1: MOR20358 anti-NOTCH3 NRR antibody (antibody, V domains shown)
VH: QVQLVQSGAEVKKPGSSVKVSCKASGGTFRTYAMHWVRQAPGQGLEWMGGIVPYHGITDYAQKFQGRVTITADESTSTAYMELSSLRSEDTAVYYCARDDYSTYAFAYWGQGTLVTVSS
VL: DIQMTQSPSSLSASVGDRVTITCRASQSIASYLAWYQQKPGKAPKLLIYDASNLQSGVPSRFSGSGSGTDFTLTISSLQPEDFATYYCQQAYKTPYTFGQGTKVEIK
